Experimental findings from article PMC4718742 (Nature chemical biology, 2015) are described below.

The target in test [1] is T1, human CypA (1–165) (human, UniProt P62937 1-165). The experiment in a line: NMR titration.
Test [2] has as its target T1, human CypA (1–165).

B1: CrkII peptide (Pro216-Ser225) (peptide)
peptide: PEPGPYAQPS
As to B1, the binding result in the test with human CypA (1–165) [1] was “binds”.

B2: CrkII^P218F (natural protein)
chain: MAGNFDSEERSSWYWGRLSRQEAVALLQGQRHGVFLVRDSSTSPGDYVLSVSENSRVSHYIINSSGPRPPVPPSPAQPPPGVSPSRLRIGDQEFDSLPALLEFYKIHYLDTTTLIEPVSRSRQGSGVILRQEEAEYVRALFDFNGNDEEDLPFKKGDILRIRDKPEEQWWNAEDSEGKRGMIPVPYVEKYRPASASVSALIGGNQEGSHPQPLGGPEFGPYAQPSVNTPLPNLQNGPIYARVIQKRVPNAYDKTALALEVGELVKVTKINVSGQWEGECNGKRGHFPFTHVRLLDQQNP
Regarding B2, the “fold higher affinity than wild-type CrkII” value with human CypA (1–165) [2] was around 20 fold.
